Experiment [1] concerns the target mouse CCR5 (mCCR5) cloned from B6 mice, transiently expressed on HeLa-MAGI cells (mouse) (UniProt P51682). As to the kind of experiment: 0.5 nM 125I-labelled human RANTES on mCCR5-transfected HeLa-MAGI cells, no sera.
The target is the same in experiment [2]. As to the kind of experiment: 0.5 nM 125I-labelled human RANTES on mCCR5-transfected HeLa-MAGI cells in a 1000-fold excess (500 nM) of cold human RANTES.

Chain of UniProt P51682 (P51682 whole entry): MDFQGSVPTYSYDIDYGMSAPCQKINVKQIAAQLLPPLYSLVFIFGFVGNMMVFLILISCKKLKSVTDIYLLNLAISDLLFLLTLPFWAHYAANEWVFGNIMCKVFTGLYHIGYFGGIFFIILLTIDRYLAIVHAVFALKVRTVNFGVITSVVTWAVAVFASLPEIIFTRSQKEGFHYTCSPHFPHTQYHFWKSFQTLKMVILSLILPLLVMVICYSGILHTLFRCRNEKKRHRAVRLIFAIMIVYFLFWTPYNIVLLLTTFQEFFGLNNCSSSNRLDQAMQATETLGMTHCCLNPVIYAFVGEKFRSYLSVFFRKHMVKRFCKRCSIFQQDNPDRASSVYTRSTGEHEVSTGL

“125I-labelled human RANTES (Amersham) (from UniProt P13501 24-91) (ligand)” registered a maximally bound iodinated RANTES in experiment [1] of 2550 cpm. The same substance came in with a non-specific binding of iodinated RANTES in experiment [2] of 1300 cpm.
